Measurements published in US20230114801A1 (SYSTIMMUNE, published 2023).
One block for each binder: values may come before it.

Key:
[1] = target: T1, CEA (UniProt P06731 35-685, limits assumed); test: BLI (Octet), unstapled control mAb or Fc-scFv
T1 sequence (looked up): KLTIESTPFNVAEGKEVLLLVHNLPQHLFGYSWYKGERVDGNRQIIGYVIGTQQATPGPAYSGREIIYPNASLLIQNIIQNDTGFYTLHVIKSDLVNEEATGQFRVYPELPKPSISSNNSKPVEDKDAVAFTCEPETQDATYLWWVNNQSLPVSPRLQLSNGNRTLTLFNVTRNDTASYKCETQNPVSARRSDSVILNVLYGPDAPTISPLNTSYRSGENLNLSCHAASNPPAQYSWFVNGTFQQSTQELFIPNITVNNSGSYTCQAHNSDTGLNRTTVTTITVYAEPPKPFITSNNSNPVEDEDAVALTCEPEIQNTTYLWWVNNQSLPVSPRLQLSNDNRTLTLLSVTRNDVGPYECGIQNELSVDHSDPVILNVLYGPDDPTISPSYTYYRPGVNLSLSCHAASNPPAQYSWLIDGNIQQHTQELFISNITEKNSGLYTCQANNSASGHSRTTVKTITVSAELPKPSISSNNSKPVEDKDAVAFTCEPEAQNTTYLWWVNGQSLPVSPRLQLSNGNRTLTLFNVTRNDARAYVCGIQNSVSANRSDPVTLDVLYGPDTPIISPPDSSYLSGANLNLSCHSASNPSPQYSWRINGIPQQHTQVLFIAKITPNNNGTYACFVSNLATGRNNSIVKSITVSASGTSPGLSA

[2] = target: T2, SI-49P9; test: BLI (Octet); conditions not stated
T2 construct: penta-miniGNC; D1 αCD3, D2 αCD19, D3 NKG2D receptor dimer, D4 41BBL, D5 αPD-L1
T2 sequence (chain, as listed by the source): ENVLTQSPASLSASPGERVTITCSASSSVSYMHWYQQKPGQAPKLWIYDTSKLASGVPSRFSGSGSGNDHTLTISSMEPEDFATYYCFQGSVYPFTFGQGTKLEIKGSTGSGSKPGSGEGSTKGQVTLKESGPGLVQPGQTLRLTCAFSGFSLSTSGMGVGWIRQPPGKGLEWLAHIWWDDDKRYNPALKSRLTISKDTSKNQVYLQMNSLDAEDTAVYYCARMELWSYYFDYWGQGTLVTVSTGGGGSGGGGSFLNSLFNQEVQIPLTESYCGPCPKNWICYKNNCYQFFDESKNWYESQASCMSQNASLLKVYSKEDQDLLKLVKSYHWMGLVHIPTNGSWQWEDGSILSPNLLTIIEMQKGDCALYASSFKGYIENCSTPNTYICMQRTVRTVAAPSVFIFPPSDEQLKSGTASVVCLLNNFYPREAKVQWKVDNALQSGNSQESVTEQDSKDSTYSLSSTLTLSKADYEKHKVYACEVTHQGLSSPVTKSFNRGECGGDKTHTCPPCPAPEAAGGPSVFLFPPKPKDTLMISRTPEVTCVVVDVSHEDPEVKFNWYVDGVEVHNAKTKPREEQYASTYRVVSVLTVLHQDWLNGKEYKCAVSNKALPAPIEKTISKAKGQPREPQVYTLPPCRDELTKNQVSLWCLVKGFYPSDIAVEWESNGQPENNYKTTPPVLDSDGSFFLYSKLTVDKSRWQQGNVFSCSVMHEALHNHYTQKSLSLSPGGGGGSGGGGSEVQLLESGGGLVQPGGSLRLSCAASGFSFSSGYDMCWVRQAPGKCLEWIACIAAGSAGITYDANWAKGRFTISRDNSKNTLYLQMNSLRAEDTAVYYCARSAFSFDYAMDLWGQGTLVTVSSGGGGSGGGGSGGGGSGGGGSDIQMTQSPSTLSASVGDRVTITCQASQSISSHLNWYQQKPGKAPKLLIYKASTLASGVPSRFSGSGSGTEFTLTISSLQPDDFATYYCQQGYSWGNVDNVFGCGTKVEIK

[3] = target: T3, human PD-L1 (human, UniProt Q9NZQ7 19-238); test: BLI (Octet), unstapled control mAb or Fc-scFv
T3 construct: Soluble antigen in Octet; bought; also called human PD-L1 (Acro PD1-H5229)

[4] = target: NKG2D ligand; test: BLI (Octet); conditions and ligand not stated
[5] = target: T4, human CD3 (human, UniProt P07766 23-126; P04234 22-105); test: BLI (Octet); conditions not stated
T4 construct: also called His-tagged human CD3; human CD3 (Acro CDD-H52W1)

[6] = target: T4, human CD3; test: BLI (Octet), unstapled control mAb or Fc-scFv
[7] = target: T5, human 4-1BB (human, UniProt Q07011 24-186, limits assumed); test: BLI (Octet), unstapled control mAb or Fc-scFv
T5 construct: Soluble antigen in Octet; construct not described

Kd [1]: < 0.001 nM
B1: SI-20C14 (antibody, human IgG1, kappa, V domains shown)
VH: EVQLVESGGGLVQPGGSLRLSCAASGFSFSGTQYVCWVRQAPGKGLEWIGCIYVDVANTYYATSVKGRFTISRDNSKNTLYLQMNSLRAEDTAVYYCASHDTVCAGCGLDLWGQGTLVTVSS
VL: DIQMTQSPSTLSASVGDRVTITCQASENIYSNLAWYQQKPGKAPKLLIYDASTLASGVPSRFSGSGSGTEFTLTISSLQPDDFATYYCQSTYYNNIIYGAAFGGGTKVEIKR
notes: monoclonal antibody control for the αCEA domain; also called αCEA mAb 656E11; SI-20C14 (anti-CEA 656E11)

B2: CD19 (receptor, UniProt P15391 20-291, looked up)
chain: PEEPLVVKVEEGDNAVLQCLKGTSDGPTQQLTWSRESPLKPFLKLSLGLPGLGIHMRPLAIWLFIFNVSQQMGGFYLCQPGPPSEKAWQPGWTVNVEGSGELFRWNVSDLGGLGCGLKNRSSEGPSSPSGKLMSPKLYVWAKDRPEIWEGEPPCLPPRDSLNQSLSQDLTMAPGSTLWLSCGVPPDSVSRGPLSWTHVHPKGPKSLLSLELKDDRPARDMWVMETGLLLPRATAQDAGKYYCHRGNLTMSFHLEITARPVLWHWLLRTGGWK
Kd [2]: 6.4 nM

Kd [3]: 0.94 nM
B3: SI-3FS11 (Fc fusion)
chain: EPKSSDKTHTCPPCPAPEAAGAPSVFLFPPKPKDTLMISRTPEVTCVVVDVSHEDPEVKFNWYVDGVEVHNAKTKPREEQYNSTYRVVSVLTVLHQDWLNGKEYKCAVSNKALPAPIEKTISKAKGQPREPQVYTLPPSRDELTKNQVSLTCLVKGFYPSDIAVEWESNGQPENNYKTTPPVLDSDGSFFLYSKLTVDKSRWQQGNVFSCSVMHEALHNHYTQKSLSLSPGGGGGSGGGGSEVQLLESGGGLVQPGGSLRLSCAASGFSFSSGYDMCWVRQAPGKGLEWIACIAAGSAGITYDANWAKGRFTISRDNSKNTLYLQMNSLRAEDTAVYYCARSAFSFDYAMDLWGQGTLVTVSSGGGGSGGGGSGGGGSGGGGSDIQMTQSPSTLSASVGDRVTITCQASQSISSHLNWYQQKPGKAPKLLIYKASTLASGVPSRFSGSGSGTEFTLTISSLQPDDFATYYCQQGYSWGNVDNVFGGGTKVEIK
notes: Fc-scFv control for the αPD-L1 domain; also called SI-3SF11; αPD-L1 Fc-scFv

Kd [4]: 16 nM
Kd [5]: 32.2 nM
B4: SI-49R27 (bispecific antibody, human IgG1, kappa, L234A L235A, N297A)
chain 1: EIVMTQSPSTLSASVGDRVIITCQASESISSWLAWYQQKPGKAPKLLIYEASKLASGVPSRFSGSGSGAEFTLTISSLQPDDFATYYCQGYFYFISRTYVNSFGCGTKLTVLGSTGSGSKPGSGEGSTKGEVQLVESGGGLVQPGGSLRLSCTASGFTISTNAMSWVRQAPGKCLEWVGVITGRDITYYASWAKGRFTISRDTSKNTVYLQMNSLRAEDTAVYYCARDGGSSAITSNNIWGQGTLVTVSTGGGGSGGGGSFLNSLFNQEVQIPLTESYCGPCPKNWICYKNNCYQFFDESKNWYESQASCMSQNASLLKVYSKEDQDLLKLVKSYHWMGLVHIPTNGSWQWEDGSILSPNLLTIIEMQKGDCALYASSFKGYIENCSTPNTYICMQRTVASTKGPSVFPLAPSSKSTSGGTAALGCLVKDYFPEPVTVSWNSGALTSGVHTFPAVLQSSGLYSLSSVVTVPSSSLGTQTYICNVNHKPSNTKVDKRVEPKSCDKTHTCPPCPAPEAAGGPSVFLFPPKPKDTLMISRTPEVTCVVVDVSHEDPEVKFNWYVDGVEVHNAKTKPREEQYASTYRVVSVLTVLHQDWLNGKEYKCAVSNKALPAPIEKTISKAKGQPREPQVCTLPPSRDELTKNQVSLSCAVKGFYPSDIAVEWESNGQPENNYKTTPPVLDSDGSFFLVSKLTVDKSRWQQGNVFSCSVMHEALHNHYTQKSLSLSPG
chain 2: not shown
notes: bi-miniGNC; D1 αCD3, D3 NKG2D receptor dimer

Kd [6]: 26.3 nM
B5: SI-9C21 (antibody, human IgG1, kappa, V domains shown)
VH: EVQLVESGGGLVQPGGSLRLSCTASGFTISTNAMSWVRQAPGKGLEWVGVITGRDITYYASWAKGRFTISRDTSKNTVYLQMNSLRAEDTAVYYCARDGGSSAITSNNIWGQGTLVTVSS
VL: EIVMTQSPSTLSASVGDRVIITCQASESISSWLAWYQQKPGKAPKLLIYEASKLASGVPSRFSGSGSGAEFTLTISSLQPDDFATYYCQGYFYFISRTYVNSFGQGTKLTVLR
notes: monoclonal antibody control for the αCD3 domain; also called αCD3 mAb; D3 = αCD3 control

Kd [7]: 14.9 nM
B6: SI-35FS11 (Fc fusion)
chain: EPKSSDKTHTCPPCPAPEAAGAPSVFLFPPKPKDTLMISRTPEVTCVVVDVSHEDPEVKFNWYVDGVEVHNAKTKPREEQYNSTYRVVSVLTVLHQDWLNGKEYKCAVSNKALPAPIEKTISKAKGQPREPQVYTLPPSRDELTKNQVSLTCLVKGFYPSDIAVEWESNGQPENNYKTTPPVLDSDGSFFLYSKLTVDKSRWQQGNVFSCSVMHEALHNHYTQKSLSLSPGGGGGSGGGGSRSLVESGGGLVQPGGSLRLSCTASGFTISSYHMQWVRQAPGKGLEYIGTISSGGNVYYASSARGRFTISRPSSKNTVDLQMNSLRAEDTAVYYCARDSGYSDPMWGQGTLVTVSSGGGGSGGGGSGGGGSGGGGSDVVMTQSPSSVSASVGDRVTITCQASQNIRTYLSWYQQKPGKAPKLLIYAAANLASGVPSRFSGSGSGTDFTLTISDLEPGDAATYYCQSTYLGTDYVGGAFGGGTKVEIK
notes: Fc-scFv control for the α4-1BB domain; also called SI-35SF11; α4-1BB Fc-scFv
